No end group written: not given here. FAM = 5(6)-carboxyfluorescein

Four molecules from patent US20240158448A1 (published 2024) can be followed below.

In assay [1] the target is T1, human SIRPα expressed on cells (PMA-differentiated THP-1 macrophages; A549 cells) (human, UniProt P78324 31-504). The experiment in a line: fluorescence microscopy saturation binding; live THP-1 macrophages.
The target in assay [2] is T1, human SIRPα expressed on cells …. The assay can be described thus: fluorescence microscopy saturation binding; live THP-1 macrophages, corrected by subtracting nS-X-FAM.
The target in assay [3] is T2, mouse SIRPα expressed on J774A.1 macrophages (mouse, UniProt P97797 32-513).
T2 chain: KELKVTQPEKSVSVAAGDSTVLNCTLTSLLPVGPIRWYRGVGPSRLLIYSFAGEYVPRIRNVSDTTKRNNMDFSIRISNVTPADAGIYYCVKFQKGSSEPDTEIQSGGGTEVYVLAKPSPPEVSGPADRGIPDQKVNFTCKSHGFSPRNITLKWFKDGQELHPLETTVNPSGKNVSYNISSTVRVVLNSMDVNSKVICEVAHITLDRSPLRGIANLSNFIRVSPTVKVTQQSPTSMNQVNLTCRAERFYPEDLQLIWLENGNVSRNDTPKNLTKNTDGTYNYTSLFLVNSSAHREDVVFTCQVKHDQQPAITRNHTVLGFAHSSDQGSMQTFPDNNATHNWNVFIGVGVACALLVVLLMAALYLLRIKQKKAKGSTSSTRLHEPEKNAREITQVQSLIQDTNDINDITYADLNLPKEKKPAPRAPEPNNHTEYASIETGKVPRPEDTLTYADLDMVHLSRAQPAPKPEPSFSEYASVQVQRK
The assay can be described thus: fluorescence microscopy saturation binding; live J774A.1 macrophages.

For assay [4], the target named is T1, human SIRPα expressed on cells …. The experiment in a line: fluorescence microscopy saturation binding; fixed THP-1 macrophages.

As usually defined, the Kd is the concentration at which binding is half-saturated. A lower Kd goes with higher affinity. For K(FAM)VTELFREG-NH2 [FAM-labeled nS-F], the Kd in assay [1] worked out at 195 µM; in assay [2], 93 µM.

With K(FAM)VTELTREG-NH2 [FAM-labeled nS-wt], the results for the dissociation constant Kd in assay [3], in assay [1] and in assay [2] were 138 µM, 148 µM and 52 µM, respectively.

In assay [1], K(FAM)LETVEGTR-NH2 [FAM-labeled nS-X] returned a dissociation constant (Kd) of 916 µM.

Take K(FAM)VTELVREG-NH2 [FAM-labeled nS-V]: the dissociation constant Kd in assay [3] stood at 203 µM; in assay [1], 161 µM; in assay [4], 32 µM; in assay [2], 123 µM.
